Test [1] has as its target human TSH receptor (CHO-JP09 cells) (human, UniProt P16473 21-764). The test can be described thus: cell-based or functional assay.
Test [2] concerns the target hCG (LH/CG) receptor of MA-10 transformed murine Leydig cells (murine, UniProt P30730 27-700). Briefly: cell-based or functional assay.

hCG (LH/CG) receptor of MA-10 transformed murine Leydig cells, sequence (P30730 27-700): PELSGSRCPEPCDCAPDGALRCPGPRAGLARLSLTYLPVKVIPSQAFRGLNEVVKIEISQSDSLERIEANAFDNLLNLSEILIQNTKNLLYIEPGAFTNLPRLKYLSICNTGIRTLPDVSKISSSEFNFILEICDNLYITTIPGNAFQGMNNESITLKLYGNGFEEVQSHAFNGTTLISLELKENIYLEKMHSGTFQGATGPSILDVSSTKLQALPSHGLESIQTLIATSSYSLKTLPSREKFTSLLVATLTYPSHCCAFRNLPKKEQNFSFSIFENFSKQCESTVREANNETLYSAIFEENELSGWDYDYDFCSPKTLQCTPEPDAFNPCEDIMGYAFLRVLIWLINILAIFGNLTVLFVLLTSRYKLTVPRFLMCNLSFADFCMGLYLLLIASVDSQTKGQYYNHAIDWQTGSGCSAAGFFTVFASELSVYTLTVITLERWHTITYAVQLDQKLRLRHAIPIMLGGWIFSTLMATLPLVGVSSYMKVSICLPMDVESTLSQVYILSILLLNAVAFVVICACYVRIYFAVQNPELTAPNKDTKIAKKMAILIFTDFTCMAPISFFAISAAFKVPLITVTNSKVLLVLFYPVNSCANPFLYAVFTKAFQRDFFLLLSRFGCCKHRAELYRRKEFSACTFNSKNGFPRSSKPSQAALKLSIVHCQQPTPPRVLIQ

B1: wild-type human thyroid stimulating hormone (ligand)
chain 1: not shown
chain 2: FCIPTEYTMHIERRECAYCLTINTTICAGYCMTRDINGKLFLPKYALSQDVCTYRDFIYRTVEIPGCPLHVAPYFSYPVALSCKCGKCNTDYSDCIHEAIKTNYCTKPQKSY
With B1, in test [1], the “cAMP stimulation in JP09 cells, EC50” value turned out to be 6.7 ng/mL and the “cAMP stimulation in JP09 cells, Relative potency (WT = 1)” value was 1 fold (WT = 1).

B2: wild-type human chorionic gonadotropin (ligand)
chain 1: not shown
chain 2: SKEPLRPRCRPINATLAVEKEGCPVCITVNTTICAGYCPTMTRVLQGVLPALPQVVCNYRDVRFESIRLPGCPRGVNPVVSYAVALSCQCALCRRSTTDCGGPKDHPLTCDDPRFQDSSSSKAPPPSLPSPSRLPGPSDTPILPQ
As to B2, in test [2], the “Progesterone synthesis in MA10 cells, EC50” value is 6.9 ng/mL and the “Progesterone synthesis in MA10 cells, Max (%)” value is 100 % of WT-hCG.

The record behind these values is patent US7070788 (US Dept. of Health and Human Services, dated 2006).
